In PMC5500802:
Blank lines part the entries; values can stand above or below the molecule they belong to.

Legend:
[1] = molecular target: GST-ACK GBD wild type, ACK(448-489) (UniProt Q07912); test: BLI; Octet Red; GST fusion proteins (10 μg/ml) loaded on anti-GST sensors, dipped into a dilution range of Cdc42·GMPPNP; 50 mM Tris–HCl pH 7.5, 150 mM NaCl, 1 mM MgCl2, 0.02% Tween 20, 0.1% BSA, 0.05% sodium azide, 25 °C; GST-alone sensors subtracted
[2] = molecular target: GST-WASP (Wiskott–Aldrich syndrome protein) fusion construct; test: as above
[3] = molecular target: GST-WASP ΔBR (basic region mutant of WASP); test: as above
GST-ACK GBD A451D = GST-ACK GBD A451D (UniProt Q07912); test: scintillation proximity assay (direct binding); 20 nM GST-ACK variant immobilised on protein A SPA fluoromicrospheres via an anti-GST antibody; varying concentrations of [3H]GTP-Cdc42; background without effector subtracted; apparent Kd from a direct binding isotherm
GST-ACK GBD D469A = GST-ACK GBD D469A (UniProt Q07912); test: as above
GST-ACK GBD D480A = GST-ACK GBD D480A (UniProt Q07912); test: as above
GST-ACK GBD F462A = GST-ACK GBD F462A (UniProt Q07912); test: as above
GST-ACK GBD G468A = GST-ACK GBD G468A (UniProt Q07912); test: as above
GST-ACK GBD H464A = GST-ACK GBD H464A (UniProt Q07912); test: as above
GST-ACK GBD H464A/H467A = GST-ACK GBD H464A/H467A (UniProt Q07912); test: as above
GST-ACK GBD H467A = GST-ACK GBD H467A (UniProt Q07912); test: as above
GST-ACK GBD I463A = GST-ACK GBD I463A (UniProt Q07912); test: as above
GST-ACK GBD L449A = GST-ACK GBD L449A (UniProt Q07912); test: as above
GST-ACK GBD L485A = GST-ACK GBD L485A (UniProt Q07912); test: as above
GST-ACK GBD L487A = GST-ACK GBD L487A (UniProt Q07912); test: as above
GST-ACK GBD P457A = GST-ACK GBD P457A (UniProt Q07912); test: as above
GST-ACK GBD Q452A = GST-ACK GBD Q452A (UniProt Q07912); test: as above
GST-ACK GBD Q459A = GST-ACK GBD Q459A (UniProt Q07912); test: as above
GST-ACK GBD R481A = GST-ACK GBD R481A (UniProt Q07912); test: as above
GST-ACK GBD S450A = GST-ACK GBD S450A (UniProt Q07912); test: as above
GST-ACK GBD S455A = GST-ACK GBD S455A (UniProt Q07912); test: as above
GST-ACK GBD S461A = GST-ACK GBD S461A (UniProt Q07912); test: as above
GST-ACK GBD S470A = GST-ACK GBD S470A (UniProt Q07912); test: as above
GST-ACK GBD T465A = GST-ACK GBD T465A (UniProt Q07912); test: as above
GST-ACK GBD W476A = GST-ACK GBD W476A (UniProt Q07912); test: as above
[4] = molecular target: GST-ACK GBD wild type, ACK(448-489) (UniProt Q07912); test: as above
GST-ACK GBD Δ17 = GST-ACK GBD Δ17 (UniProt Q07912); test: as above
Cdc42 Δ7 Q61L = Cdc42 Δ7 Q61L (UniProt P60953); test: scintillation proximity assay (competition); 30 nM GST-WT ACK GBD immobilised on protein A SPA fluoromicrospheres via an anti-GST antibody, 30 nM [3H]GTP-Cdc42; increasing concentrations of GST-cleaved ACK variant; pure competition model, apparent Kd (Ki)

- Kd [1]: 130 nM
- kon [1]: 224000 M⁻¹ s⁻¹
- Kd [2]: 30 nM
- kon [2]: 793000 M⁻¹ s⁻¹
- Kd [3]: 220 nM
- kon [3]: 360000 M⁻¹ s⁻¹
- Kd (GST-ACK GBD A451D): 189 nM
- Kd (GST-ACK GBD D469A): 38 nM
- Kd (GST-ACK GBD D480A): 164 nM
- fold increase in Kd over WT (GST-ACK GBD F462A): > 22.6 -fold
- Kd (GST-ACK GBD G468A): 67.3 nM
- fold increase in Kd over WT (GST-ACK GBD H464A): > 22.6 -fold
- fold increase in Kd over WT (GST-ACK GBD H464A/H467A): > 22.6 -fold
- fold increase in Kd over WT (GST-ACK GBD H467A): > 22.6 -fold
- Kd (GST-ACK GBD I463A): 152 nM
- Kd (GST-ACK GBD L449A): 492 nM
- Kd (GST-ACK GBD L485A): 31.4 nM
- Kd (GST-ACK GBD L487A): 330 nM
- fold increase in Kd over WT (GST-ACK GBD P457A): > 22.6 -fold
- Kd (GST-ACK GBD Q452A): 44 nM
- Kd (GST-ACK GBD Q459A): 29.8 nM
- Kd (GST-ACK GBD R481A): 107 nM
- Kd (GST-ACK GBD S450A): 167 nM
- Kd (GST-ACK GBD S455A): 243 nM
- fold increase in Kd over WT (GST-ACK GBD S461A): > 22.6 -fold
- Kd (GST-ACK GBD S470A): 35.4 nM
- Kd (GST-ACK GBD T465A): 85.4 nM
- Kd (GST-ACK GBD W476A): 137 nM
- Kd [4]: 44.2 nM
- fold increase in Kd over WT (GST-ACK GBD Δ17): > 22.6 -fold
Molecule: Cdc42 Δ7 Q61L (from UniProt P60953 1-191) (natural protein)

- Kd (Cdc42 Δ7 Q61L): 20 nM
Molecule: GLSAQDISQPLQNSFIHTGHGDSDPRHCWGFPDRIDELYLGN (domain or fragment) [ACK GBD wild type, ACK(448-489), cleaved from GST]

- Kd (Cdc42 Δ7 Q61L): 1790 nM
Molecule: GLSAQDISQPLQNSFIHTGAGDSDPRHCWGFPDRIDELYLGN (domain or fragment) [ACK GBD H467A, cleaved from GST]

- Kd (Cdc42 Δ7 Q61L): 750 nM
Molecule: GLSAQDIAQPLQNSFIHTGHGDSDPRHCWGFPDRIDELYLGN (domain or fragment) [ACK GBD S455A, cleaved from GST]

- Kd (Cdc42 Δ7 Q61L): 4160 nM
Molecule: GLSAQDISQPLQNAFIHTGHGDSDPRHCWGFPDRIDELYLGN (domain or fragment) [ACK GBD S461A, cleaved from GST]

- Kd (Cdc42 Δ7 Q61L): 19700 nM
Molecule: GLSAQDASQPLQNSFIHTGHGDSDPRHCWGFPDRIDELYLGN (domain or fragment) [ACK GBD I454A, cleaved from GST]

- Kd (Cdc42 Δ7 Q61L): 3830 nM
Molecule: GLSAQDISQALQNSFIHTGHGDSDPRHCWGFPDRIDELYLGN (domain or fragment) [ACK GBD P457A, cleaved from GST]

- Kd (Cdc42 Δ7 Q61L): 3460 nM
Molecule: GLSAQDISQPLQNSAIHTGHGDSDPRHCWGFPDRIDELYLGN (domain or fragment) [ACK GBD F462A, cleaved from GST]

- Kd (Cdc42 Δ7 Q61L): 2510 nM
Molecule: GLSAQDISQPLQNSFIATGHGDSDPRHCWGFPDRIDELYLGN (domain or fragment) [ACK GBD H464A, cleaved from GST]

- Kd (Cdc42 Δ7 Q61L): 4760 nM
Molecule: GLSAQDISQPLQNSFIHTGHGDSDP (domain or fragment) [ACK GBD Δ17, cleaved from GST]
